Experimental data as given in article PMC10743661, “The Link of mRNA and rRNA Transcription by PUF60/FIR through TFIIH/P62 as a Novel Therapeutic Target for Cancer” (International Journal of Molecular Sciences, 2023).

Tests used:
[1] = molecular target: T1, FUBP1-interacting repressor (FIR) (human, UniProt Q9UHX1-2 1-542); experiment: ITC; first step of two-step fit, 30°C, pH 7.2
T1 chain: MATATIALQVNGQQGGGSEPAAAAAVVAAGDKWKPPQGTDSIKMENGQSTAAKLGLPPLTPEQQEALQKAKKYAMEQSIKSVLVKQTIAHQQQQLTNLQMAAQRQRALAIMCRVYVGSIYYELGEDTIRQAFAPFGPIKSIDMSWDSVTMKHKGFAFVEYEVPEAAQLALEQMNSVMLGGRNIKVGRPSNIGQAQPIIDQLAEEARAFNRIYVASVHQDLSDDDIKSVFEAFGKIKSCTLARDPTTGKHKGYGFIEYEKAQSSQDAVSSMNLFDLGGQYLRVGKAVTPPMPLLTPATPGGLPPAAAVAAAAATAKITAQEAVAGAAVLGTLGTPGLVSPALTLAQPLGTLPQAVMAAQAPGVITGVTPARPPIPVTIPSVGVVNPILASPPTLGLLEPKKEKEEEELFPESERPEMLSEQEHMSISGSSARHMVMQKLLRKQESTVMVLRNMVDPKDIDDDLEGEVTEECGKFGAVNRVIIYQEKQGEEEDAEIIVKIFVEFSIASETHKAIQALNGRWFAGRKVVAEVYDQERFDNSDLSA

[2] = molecular target: T1, FUBP1-interacting repressor (FIR); experiment: ITC; second step of two-step fit, 30°C, pH 7.2
[3] = molecular target: T2, FUBP1-interacting repressor (FIR) (human, UniProt Q9UHX1-2 1-542); experiment: ITC; MicroCal VP-ITC, 30 °C, 50 mM phosphate buffer pH 7.2; cell: 4 μM wild FIR or 14.5 μM FIR∆exon2; syringe: 44 or 145 μM TFIIH p62 PH domain; 25 injections of 10 μL; conditions: both partners purified
T2 construct: also called FIR wild; wild FIR
T2 sequence (looked up): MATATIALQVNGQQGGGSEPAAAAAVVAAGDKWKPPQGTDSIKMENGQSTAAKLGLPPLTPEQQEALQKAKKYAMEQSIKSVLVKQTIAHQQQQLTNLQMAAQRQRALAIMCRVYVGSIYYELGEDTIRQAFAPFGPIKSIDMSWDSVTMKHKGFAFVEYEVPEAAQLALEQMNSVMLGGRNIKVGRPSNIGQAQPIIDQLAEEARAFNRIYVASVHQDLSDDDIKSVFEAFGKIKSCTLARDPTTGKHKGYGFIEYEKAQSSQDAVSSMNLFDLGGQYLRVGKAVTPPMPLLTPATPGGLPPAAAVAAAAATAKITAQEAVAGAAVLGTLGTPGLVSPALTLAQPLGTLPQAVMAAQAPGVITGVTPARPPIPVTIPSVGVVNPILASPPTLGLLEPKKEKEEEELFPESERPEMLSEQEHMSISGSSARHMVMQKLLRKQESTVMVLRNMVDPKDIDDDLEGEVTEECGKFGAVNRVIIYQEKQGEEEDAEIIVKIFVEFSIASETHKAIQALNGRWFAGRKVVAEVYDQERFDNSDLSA

B1: TFIIH p62 PH domain (domain or fragment, UniProt P32780 1-108, looked up)
chain: MATSSEEVLLIVKKVRQKKQDGALYLMAERIAWAPEGKDRFTISHMYADIKCQKISPEGKAKIQLQLVLHAGDTTNFHFSNESTAVKERDAVKDLLQQLLPKFKRKAN
notes: pleckstrin homology (PH) domain of the P62 subunit of transcription factor IIH; also called P62 of TFIIH; P62 subunit of TFIIH
- Ka [1]: 1.9e+07 M⁻¹
- Ka [2]: 2.3e+06 M⁻¹
- Ka [3]: 2.34e+07 M⁻¹
